The target of this assay is T1, KAT6A MYST domain (KAT6A 501-784) (human, UniProt Q92794 501-784, autoacetylated K604 (as seen in the structure)).
T1 construct: KAT6A (MOZ), human, acetyltransferase (MYST) domain, residues 501-784, NCBI NP_006757.2; also called pHis-MYST domain; not shown: polyhistidine, N-terminal, cleaved
Briefly: crystal structure; KAT6A MYST domain at 8 mg/ml complexed with H3K14-CoA in a 1:10 M ratio, 4 h at 4 °C; sitting drop, 1.25 M NH4SO4, 0.28 M NaCl, 0.1 M HEPES pH 6.4, 21 °C. Particulars: both partners purified.

T1 sequence (Q92794 501-784): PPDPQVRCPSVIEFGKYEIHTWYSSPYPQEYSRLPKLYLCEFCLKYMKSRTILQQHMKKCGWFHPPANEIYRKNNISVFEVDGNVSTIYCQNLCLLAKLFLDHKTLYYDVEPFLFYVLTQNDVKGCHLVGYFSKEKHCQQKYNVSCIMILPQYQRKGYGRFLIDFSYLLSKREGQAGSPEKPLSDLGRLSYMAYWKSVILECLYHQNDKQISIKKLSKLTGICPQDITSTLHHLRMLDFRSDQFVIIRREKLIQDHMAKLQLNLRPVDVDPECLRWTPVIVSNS

B1: H3K14-CoA bisubstrate inhibitor (peptide)
peptide: QTARKSTGGKAPRKQLATK
modifications: ε-amino group of K14 covalently attached to CoA through a non-native acetyl bridge; 6-aminohexanoic acid (Ahx) linker on the N-terminus
notes: histone H3 tail, residues 5-23; Made on Rink Amide resin, so the C-terminus is probably an amide (surmised); Only residues 10-17 are resolved in the structure; also called peptidyl-CoA analogue; H3 (5-23) with K14 attached to CoA; source: synthetic peptide (manual Fmoc synthesis on Nova PEG Rink Amide, HPLC purified, coupled to Coenzyme A)
B1: the binding result is “binds”.
